These results are taken from patent publication US4374928A, “Novel reductase” (Hoffmann-La Roche Inc., priority 1981, dated 1983).

As usually defined, the inhibition is the drop in the measured response relative to a control, in per cent.

One test has as its target T1, peptide MetSO reductase (Escherichia coli, UniProt P0A744).
T1 construct: made in house; host or cells: E. coli Z19 cells (endogenous enzyme, not recombinant; ammonium sulfate, DE-52, Ultrogel AcA-44, DEAE-Sephadex)
The test can be described thus: Inhibition of the reduction of MetSO-L12 by excess free MetSO. Format: biochemical, E. coli. To be noted: 1×10^-4 M MetSO, about 60 times the concentration of MetSO-L12; read-out: inhibition of the enzymatic activity of peptide MetSO reductase. The method, then:
The assay for the reduction of MetSO-L12 to L12 is based on the ability of L12-transacetylase to specifically acetylate the amino terminal serine of Met-L12 to form acetyl-Met-L12, i.e. L7. A two-step incubation was used. […] After a 60 min incubation at 37°, the reaction mixtures were placed on ice and to each reaction mixture were added 2 μmol of sodium arsenite, 1.2 μg partially purified L12-transacetylase (see below) and [^3 H] acetyl-CoA (935 pmoles, 237 cpm/pmol) and the volume brought to 50 μl. The second incubation (acetylation reaction) was for 5 min at 37°, after which the reaction mixtures were diluted with 3 ml of cold buffer A and filtered through a nitrocellulose filter. The filters were washed with 10 ml of this same buffer, dissolved in scintillation fluid and the radioactivity determined. Under these conditions L12 and acetyl-L12 are quantitatively retained by the nitrocellulose filter. The results are reported as pmoles of acetyl-L12 formed under these conditions.

For a further test, the system named is Met-L12. The test can be described thus: L12-transacetylase assay: acetylation of Met-L12. Format: biochemical, E. coli. The procedure: The fractions containing the enzyme activity were pooled (750 mg), concentrated and applied to a hydroxyapatite column (2×15 cm) equilibrated with a buffer containing 25 mM KPO4, pH 6.9, 1 mM β-mercaptoethanol and 10% glycerol. The column was eluted with a gradient from 25 mM to 250 mM KPO4, pH 6.9, containing 1 mM β-mercaptoethanol and 10% glycerol and the fractions containing enzymatic avtivity were pooled and concentrated (72 mg). This procedure yielded a 225 fold purification of the enzyme. Under standard conditions of assay as set forth by Brot and Weissbach [Biochem. Biophys. Res. Commun. 49, 673 (1972)] this fraction acetylated 46 nmols of Met-L12 per mg protein in 5 min. […] These properties are essential in order to use the enzymatic acetylation of Met-L12 as an assay for MetSO-L12 reduction. It was seen that at all concentrations of Met-L12, only one-third of the protein is acetylated.

T1 sequence (P0A744 2-212): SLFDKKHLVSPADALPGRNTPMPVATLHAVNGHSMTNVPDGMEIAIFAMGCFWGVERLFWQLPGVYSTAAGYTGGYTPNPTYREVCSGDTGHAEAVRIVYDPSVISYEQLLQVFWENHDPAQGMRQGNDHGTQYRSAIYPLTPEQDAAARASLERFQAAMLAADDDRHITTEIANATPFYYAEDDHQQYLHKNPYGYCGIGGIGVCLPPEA

Regarding `C[S+]([O-])CC[C@H](N)C(=O)O` (stereo partly shown) [MetSO, methionine sulfoxide], the inhibition at 100 µM on peptide MetSO reductase is below 20%.

B1: L12-transacetylase: Partially purified E. coli Q13 enzyme that acetylates the amino terminal serine of Met-L12 to form acetyl-Met-L12 (L7) (protein, UniProt P13857 1-179, looked up)
Ribosomal-protein-serine …: MTETIKVSESLELHAVAENHVKPLYQLICKNKTWLQQSLNWPQFVQSEEDTRKTVQGNVMLHQRGYAKMFMIFKEDELIGVISFNRIEPLNKTAEIGYWLDESHQGQGIISQALQALIHHYAQSGELRRFVIKCRVDNPQSNQVALRNGFILEGCLKQAEFLNDAYDDVNLYARIIDSQ
modifications: partially purified
B1: the “MetSO-L12 as substrate for acetylation” value in the test with Met-L12 is on record as “not a substrate”. Besides, the “fraction of Met-L12 acetylated” value in the test with Met-L12 (at all concentrations of Met-L12) is reported as “one-third”. The Met-L12 acetylated in the test on Met-L12 (in 5 min, standard conditions of assay, hydroxyapatite fraction) is on record as 46 nmols per mg protein.
